Where two headings read alike, the source gives them in different places.

We go through 4 molecules from US20160355588A1 (Zymeworks, published 2016).

Assay in all cases: cell-based or functional assay
Assay [1] addresses T1, CD19 on Raji B cells (human, UniProt P15391 20-556).
T1 sequence (looked up): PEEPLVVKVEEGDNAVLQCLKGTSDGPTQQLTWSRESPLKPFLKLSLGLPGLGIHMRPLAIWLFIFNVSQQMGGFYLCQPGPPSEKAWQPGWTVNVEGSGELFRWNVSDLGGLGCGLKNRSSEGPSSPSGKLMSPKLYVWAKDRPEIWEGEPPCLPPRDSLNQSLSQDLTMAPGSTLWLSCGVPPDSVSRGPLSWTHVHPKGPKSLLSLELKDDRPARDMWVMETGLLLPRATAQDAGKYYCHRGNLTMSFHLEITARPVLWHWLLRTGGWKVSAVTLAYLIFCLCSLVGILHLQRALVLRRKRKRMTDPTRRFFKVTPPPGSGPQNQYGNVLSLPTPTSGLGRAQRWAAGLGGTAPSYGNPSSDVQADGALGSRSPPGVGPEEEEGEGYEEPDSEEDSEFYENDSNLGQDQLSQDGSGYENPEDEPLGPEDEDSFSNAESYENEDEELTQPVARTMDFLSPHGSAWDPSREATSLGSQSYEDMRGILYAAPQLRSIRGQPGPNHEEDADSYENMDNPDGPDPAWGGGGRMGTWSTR

The target in assay [2] is T2, CD20 on Raji B cells (human, UniProt P11836 1-297).
T2 sequence (looked up): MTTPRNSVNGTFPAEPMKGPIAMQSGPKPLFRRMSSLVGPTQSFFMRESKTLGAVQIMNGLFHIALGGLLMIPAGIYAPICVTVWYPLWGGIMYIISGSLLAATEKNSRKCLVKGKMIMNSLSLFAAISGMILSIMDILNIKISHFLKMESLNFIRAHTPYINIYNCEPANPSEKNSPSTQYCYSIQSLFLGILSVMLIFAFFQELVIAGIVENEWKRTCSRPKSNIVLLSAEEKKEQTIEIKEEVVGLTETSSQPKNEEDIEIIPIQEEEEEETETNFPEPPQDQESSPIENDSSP

The target in assay [3] is T1, CD19 on Raji B cells. This is another data set of the same source.
The target in assay [4] is T2, CD20 on Raji B cells. The source holds these as a separate data set.

B1: v5851 (bispecific antibody)
chain: not shown
heavy: not shown
light: DIVMTQSPATLSLSPGERATLSCRSSKSLQNVNGNTYLYWFQQKPGQSPQLLIYRMSNLNSGVPDRFSGSGSGTEFTLTISSLEPEDFAVYYCMQHLEYPITFGAGTKLEIKRTVAAPSVFIFPPSDEQLKSGTASVVCLLNNFYPREAKVQWKVDNALQSGNSQESVTEQDSKDSTYSLSSTLTLSKADYEKHKVYACEVTHQGLSSPVTKSFNRGEC
With B1, in the assay with CD19 on Raji B cells [1], the “% Bridging Jurkat/Raji (whole cell FACS T:B bridging; CD3 on Jurkat bridged to the B cell antigen on Raji)” value (shortened to “% Bridging Jurkat/Raji”) came to 23.2%.

B2: v1821 (bispecific antibody, human IgG1, kappa)
heavy 1: QVQLVQSGGGVVQPGRSLRLSCKASGYTFTSYTMHWVRQAPGKGLEWIGYINPSSGYTKYNQKFKDRFTISADKSKSTAFLQMDSLRPEDTGVYFCARWQDYDVYFDYWGQGTPVTVSSASTKGPSVFPLAPSSKSTSGGTAALGCLVKDYFPEPVTVSWNSGALTSGVHTFPAVLQSSGLYSLSSVVTVPSSSLGTQTYICNVNHKPSNTKVDKKVEPKSCDKTHTCPPCPAPELLGGPSVFLFPPKPKDTLMISRTPEVTCVVVDVSHEDPEVKFNWYVDGVEVHNAKTKPREEQYNSTYRVVSVLTVLHQDWLNGKEYKCKVSNKALPAPIEKTISKAKGQPREPQVYVYPPSRDELTKNQVSLTCLVKGFYPSDIAVEWESNGQPENNYKTTPPVLDSDGSFALVSKLTVDKSRWQQGNVFSCSVMHEALHNHYTQKSLSLSPGK
heavy 2: not shown
light: QIVLSQSPAILSASPGEKVTMTCRASSSVSYIHWFQQKPGSSPKPWIYATSNLASGVPVRFSGSGSGTSYSLTISRVEAEDAATYYCQQWTSNPPTFGGGTKLEIKRTVAAPSVFIFPPSDEQLKSGTASVVCLLNNFYPREAKVQWKVDNALQSGNSQESVTEQDSKDSTYSLSSTLTLSKADYEKHKVYACEVTHQGLSSPVTKSFNRGEC
With B2, the “% Bridging Jurkat/Raji” value in the assay with CD20 on Raji B cells [2] is 7.3%.

B3: v5852 (bispecific antibody, human IgG1, kappa, L234A L235A)
heavy: QVQLVQSGGGVVQPGRSLRLSCKASGYTFTRYTMHWVRQAPGKGLEWIGYINPSRGYTNYNQKVKDRFTISRDNSKNTAFLQMDSLRPEDTGVYFCARYYDDHYCLDYWGQGTPVTVSSASTKGPSVFPLAPSSKSTSGGTAALGCLVKDYFPEPVTVSWNSGALTSGVHTFPAVLQSSGLYSLSSVVTVPSSSLGTQTYICNVNHKPSNTKVDKKVEPKSCDKTHTCPPCPAPELLGGPSVFLFPPKPKDTLMISRTPEVTCVVVDVSHEDPEVKFNWYVDGVEVHNAKTKPREEQYNSTYRVVSVLTVLHQDWLNGKEYKCKVSNKALPAPIEKTISKAKGQPREPQVYVYPPSRDELTKNQVSLTCLVKGFYPSDIAVEWESNGQPENNYKTTPPVLDSDGSFALVSKLTVDKSRWQQGNVFSCSVMHEALHNHYTQKSLSLSPGK
chain: EVQLVESGGGLVKPGGSLKLSCAASGYTFTSYVMHWVRQAPGKGLEWIGYINPYNDGTKYNEKFQGRVTISSDKSISTAYMELSSLRSEDTAMYYCARGTYYYGTRVFDYWGQGTLVTVSSGGGGSGGGGSGGGGSDIVMTQSPATLSLSPGERATLSCRSSKSLQNVNGNTYLYWFQQKPGQSPQLLIYRMSNLNSGVPDRFSGSGSGTEFTLTISSLEPEDFAVYYCMQHLEYPITFGAGTKLEIKAAEPKSSDKTHTCPPCPAPEAAGGPSVFLFPPKPKDTLMISRTPEVTCVVVSVSHEDPEVKFNWYVDGVEVHNAKTKPREEQYNSTYRVVSVLTVLHQDWLNGKEYKCKVSNKALPAPIEKTISKAKGQPREPQVYVLPPSRDELTKNQVSLLCLVKGFYPSDIAVEWESNGQPENNYLTWPPVLDSDGSFFLYSKLTVDKSRWQQGNVFSCSVMHEALHNHYTQKSLSLSPGK
light: DIQMTQSPSSLSASVGDRVTITCSASSSVSYMNWYQQTPGKAPKRWIYDTSKLASGVPSRFSGSGSGTDYTFTISSLQPEDIATYYCQQWSSNPFTFGQGTKLQITRTVAAPSVFIFPPSDEQLKSGTASVVCLLNNFYPREAKVQWKVDNALQSGNSQESVTEQDSKDSTYSLSSTLTLSKADYEKHKVYACEVTHQGLSSPVTKSFNRGEC
On to B3, for which, in the assay with CD19 on Raji B cells [3], the “% Bridging Jurkat/Raji” value is 30.4%.

B4: v6325 (bispecific antibody, human IgG1, kappa)
heavy: QVQLVQSGGGVVQPGRSLRLSCKASGYTFTRYTMHWVRQAPGKGLEWIGYINPSRGYTNYNQKVKDRFTISRDNSKNTAFLQMDSLRPEDTGVYFCARYYDDHYCLDYWGQGTPVTVSSASTKGPSVFPLAPSSKSTSGGTAALGCLVKDYFPEPVTVSWNSGALTSGVHTFPAVLQSSGLYSLSSVVTVPSSSLGTQTYICNVNHKPSNTKVDKKVEPKSCDKTHTCPPCPAPELLGGPSVFLFPPKPKDTLMISRTPEVTCVVVDVSHEDPEVKFNWYVDGVEVHNAKTKPREEQYNSTYRVVSVLTVLHQDWLNGKEYKCKVSNKALPAPIEKTISKAKGQPREPQVYVYPPSRDELTKNQVSLTCLVKGFYPSDIAVEWESNGQPENNYKTTPPVLDSDGSFALVSKLTVDKSRWQQGNVFSCSVMHEALHNHYTQKSLSLSPGK
chain: not shown
light: DIQMTQSPSSLSASVGDRVTITCSASSSVSYMNWYQQTPGKAPKRWIYDTSKLASGVPSRFSGSGSGTDYTFTISSLQPEDIATYYCQQWSSNPFTFGQGTKLQITRTVAAPSVFIFPPSDEQLKSGTASVVCLLNNFYPREAKVQWKVDNALQSGNSQESVTEQDSKDSTYSLSSTLTLSKADYEKHKVYACEVTHQGLSSPVTKSFNRGEC
Consider B4, for which the “% Bridging Jurkat/Raji” value in the assay with CD20 on Raji B cells [4] came out at 15.7%.
